# Read-outs that look alike come from different tables or passages of the source.
# B1: BMP-9: recombinant human bone morphogenetic protein-9, mature amino acids #1-#110 of SEQ ID NO:9, expressed in CHO cells (protein)
# chain: TRECSRSCPRTAPQRQVRAVTRRTRMAHVAAGSTLARRKRSAGAGSHCQKTSLRVNFEDIGWDSWIIAPKEYEAYECKGGCFFPLADDVTPTKHAIVQTLVHLKFPTKVG
# modifications: 125I-iodinated as tracer; unlabelled BMP-9 used as the displacing ligand
# Experiments:
# HepG2 cells = assay: HepG2 cell proliferation (3H-thymidine incorporation, cell counting); type: cell-based
# Method: As a first indication of BMP-9 effects on confluent, serum starved HepG2 cells, cell proliferation is examined as determined by ^3 H-thymidine incorporation and cell counting. HepG2 cells are plated at […] in 96 well plates and cultured for 48 hours in DME/0.1% FCS to synchronize the cell cycle are treated for 24 hours with or without BMP-9 in the presence of 0.1% FCS. In ^3 H-thymidine incorporation assays, ^3 H-thymidine was included during the last 4 hours of treatment and cellular DNA was collected with a 96 well plate cell harvester. Proliferation was assayed by quantifying ethanol-precipitable ^3 H-thymidine incorporation by liquid scintillation counting. For cell counting assays, cells were trypsinized and counted with a hemacytometer. Primary rat hepatocytes isolated from male Fischer 344 rats (Charles River, Wilmington, Mass.) by collagenase digestion as previously described [Michalopoulos et al., Cancer Res. 42:4673-4682 (1982)] are plated on collagen-coated plates at subconfluence (5,000-10,000 cells/cm^2) in serum-free media as described in Michalopoulos et al., Cancer Res. 42:4673-4682 (1982) and treated with or without rhBMP-9 for 36 hours. ^3 H-thymidine was included throughout the treatment period and incorporated ^3 H-thymidine was quantified as described by Anscher et al., New England J. Med. 328:1592-1598 (1993). BMP-9 stimulates ^3 H-thymidine incorporation in HepG2 cells approximately five fold.
# liver plasma membranes = assay: [125I]rhBMP-9 binding to liver plasma membranes; conditions: adult rat liver plasma membranes, displaceable by 100-fold excess of unlabeled rhBMP-9
# Method: To determine potential target tissues for BMP-9, plasma membrane preparations from adult rat organs are screened for specific [^125 I]rhBMP-9 binding. Plasma membranes are prepared by the methods of Neville, J. Biophys Biochem Cytol 8:412-422 (1960) and Ray, Biochim Biophys Acta 196:1-9 (1970) with the following modifications: Fresh tissues from adult male Long-Evans rats are homogenized with 10 strokes of a teflon homogenizer. Plasma membranes are collected from discontinuous sucrose gradients at 37%/41% sucrose interface and the 41%/45% sucrose interface. Homogenization buffer and sucrose solutions are supplemented with 0.7 μg/ml leupeptin, 2 μg/ml aprotinin and 240 μg/ml pefabloc. Protein levels in plasma membrane preparations are determined by the bicinchoninic acid assay (Pierce, Rockford, Ill.) using immunoglobulin G as a standard.
# BMP-9 binding is carried out by suspending plasma membranes at 30 μg/100μl in binding buffer (136.9 mM NaCl, 5.37 mM KCl, 1.26 mM CaCl2, 0.64 mM MgSO4, 0.34 mM Na2 HPO4, 0.44 mM KH2 PO4, 0.49 mM MgCl2, 25 mM HEPES and 0.5% BSA, pH 7.4) containing o.5 ng [^125 I]rhBMP-9. Binding is allowed to equilibrate by incubation for 16 h at 4° C. […]
# To verify that this specific binding is of high affinity, a more complete displacement profile is determined with lung and kidney plasma membranes.
# [1] = test system: BMP-9 receptors expressed on HepG2 cells; assay: 125I-BMP-9 binding to HepG2 cells
# Method: BMP-9 responsiveness in parenchymal liver cells is tested by screening four liver cell lines for their ability to bind iodinated, CHO-derived BMP-9. […] Specific binding of BMP-9 to HepG2 cells is carried out by incubating HepG2 cells grown to confluence in Dulbecco's Modified Eagle's Medium (DME) containing 10% heat-inactivated fetal calf serum (FCS) on gelatinized 6 well plates with 2 ng/ml ^125 I-BMP-9 and increasing concentrations of unlabelled BMP-9 in binding buffer (136.9 mM NaCl, 5.37 mM KCl, 1.26 mM CaCl2, 0.64 mM MgSO4, 0.34 mM Na2 HPO4, 0.44 mM KH2 PO4, 0.49 mM MgCl2, 25 mM HEPES and 0.5% BSA, pH 7.4) for 20 hours at 4° C. to achieve binding equilibrium. This incubation follows a one hour preincubation at 37° C. in binding buffer alone. For crosslinking experiments, the cells were incubated with 500 μM disuccinimidyl suberate for 20 minutes at […] following binding. Cell extracts were analyzed on SDS-PAGE. […] To test the binding specificity of the receptors for BMP-9, HepG2 cells were incubated with ^125 I-BMP-9 and a 250-fold excess of different unlabeled ligands.
# NMuli = assay: 125I-BMP-9 binding to NMuli liver cell line; conditions: iodinated CHO-derived BMP-9
# Method: (§1) BMP-9 responsiveness in parenchymal liver cells is tested by screening four liver cell lines for their ability to bind iodinated, CHO-derived BMP-9. […] Specific binding of BMP-9 to HepG2 cells is carried out by incubating HepG2 cells grown to confluence in Dulbecco's Modified Eagle's Medium (DME) containing 10% heat-inactivated fetal calf serum (FCS) on gelatinized 6 well plates with 2 ng/ml ^125 I-BMP-9 and increasing concentrations of unlabelled BMP-9 in binding buffer (136.9 mM NaCl, 5.37 mM KCl, 1.26 mM CaCl2, 0.64 mM MgSO4, 0.34 mM Na2 HPO4, 0.44 mM KH2 PO4, 0.49 mM MgCl2, 25 mM HEPES and 0.5% BSA, pH 7.4) for 20 hours at 4° C. to achieve binding equilibrium. This incubation follows a one hour preincubation at 37° C. in binding buffer alone. For crosslinking experiments, the cells were incubated with 500 μM disuccinimidyl suberate for 20 minutes at […] following binding. Cell extracts were analyzed on SDS-PAGE. […] The curvilinear nature of the Scatchard plot indicates negative cooperativity among BMP-9 receptors or that HepG2 cells express at least two populations of BMP-9 receptors with different affinities. Crosslinking analysis on HepG2 cells with ^125 I-BMP-9 yields two binding proteins of apparent molecular weights of 54 and 80 kD. […]
# NCTC1469 = assay: 125I-BMP-9 binding to NCTC1469 liver cell line; conditions: iodinated CHO-derived BMP-9
# Method: as §1
molecule,measurement,setting,value
B1,"ED50, stimulation of 3H-thymidine incorporation","HepG2 cells; HepG2 cells, estimated",10 ng/mL
same,cell counting,"HepG2 cells; HepG2 cells, treated 24 hours",stimulatory effect
same,stimulation of 3H-thymidine incorporation,"HepG2 cells; confluent, serum starved HepG2 cells, treated 24 hours, 0.1% FCS",approximately five
same,specific [125I]rhBMP-9 binding,liver plasma membranes,evident
same,Kd,"[1]; HepG2 cells, Scatchard analysis, 20 hours at 4° C., read-out: Kd of high affinity receptors",0.3 nM
same,Kd,"[1]; HepG2 cells, estimated, read-out: Kd of the high affinity binding sites",~0.27 nM
same,Kd (estimated binding affinity) expressed,"[1]; HepG2 cells, printed as Kd =0.3 nM=8 ng/ml",8 ng/mL
same,specific binding of 125I-BMP-9,"[1]; HepG2 liver cell line, iodinated CHO-derived BMP-9",highest degree of binding
same,specific binding of 125I-BMP-9,NMuli,to some extent
same,specific binding of 125I-BMP-9,NCTC1469,highest degree of binding
